For series [1], the system named is clam E3-C/cyclosome complex, activated, partially purified.
For series [2], the system named is non-specific ubiquitin-protein ligase (E3) from clam oocyte Fraction 1A.

Sequence of recombinant human Ubc4 homolog, UbcH5 (chain, as listed by the source): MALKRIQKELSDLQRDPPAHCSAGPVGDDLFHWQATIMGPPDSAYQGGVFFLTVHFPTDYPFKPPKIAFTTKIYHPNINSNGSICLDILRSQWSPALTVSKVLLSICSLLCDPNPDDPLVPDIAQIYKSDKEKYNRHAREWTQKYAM

Consider recombinant human Ubc4 homolog, UbcH5, for which, in series [1], the “stimulation of cyclin-ubiquitin ligation” value is “UbcH5 caused some stimulation of cyclin-ubiquitin ligation by the clam E3-C/cyclosome complex, but the amount of conjugates formed and their size ... were much lower than those obtained with the recombinant clam protein”. Further, the “ligation of 125I-ubiquitin to high molecular weight conjugates” value in series [2] was “UbcH5 strongly stimulated the ligation of 125I-ubiquitin to high molecular weight conjugates in the presence of non-specific E3 from clam oocytes”.

For the origin of these results see US6528633.
